Laboratory results: publication PMC10720262 (Cell Reports, 2023)
Substitutions are numbered along the chain they refer to.

B1: CL-437092 (antibody, V domains shown)
VH: QVQLVESGGGVVQPGGSLRLSCAASGFTLSSFGIHWVRQAPGKGLEWVALIWHDGSMKYYADSVKGRFTISRDNSKNTVDIQMNSLRVEDTAVYYCARPGIGSPGDHYTMDVWGHGTTVTVSS
VL: not shown
B2: CL-441816 (antibody, V domains shown)
VH: QEQLVESGGGVVQPGRSLRLSCATSGFTFSTYGLHWVRQSPGKGLEWVTVIWYDGSNKFYADSVKGRFTISRDNSKNTLYLQMNSLRAEDTAVYYCARALYSSRWYGAFDIWGQGTMVTVSS
VL: QSVLTQPPSVSGAPGQRVTISCTGSSSNIGAGYDVHWYQLLPGTAPKLLIYGNSNRPSGVPDRFSGSKSGTSASLAITGLQAEDEADYYCQSYIRSLSGSVFGGGTKLTVL
B3: CL-444592 (antibody, V domains shown)
VH: QVQLVESGGGVVQPGRSLRLSCAASGFTFSSYGMHWVRQAPGKGLEWVAVIWYDGSNKYYADSVKGRFTISRDNSKNTLYLQMNSLRAEDTAVYYCARDGNWNYNYYYGMDVWGQGTTVTVSS
VL: DIQLTQSPSFLSASVGDRVTITCWASQGISSYLAWYQQKPGKAPKLLIYAASTLQSGVPSRFSGSGSGTEFTLTISSLQPEDFATYYCQQLNSYPPTFGQGTRLEIK
B4: CL-437899 (antibody, V domains shown)
VH: QEQLVESGGGVVQPGRSLRLSCEVSGFTFSNHGLHWVRQAPGKGLEWVAIIWYDGSNKFYAESVKGRFTISRDNSKNRMYLEMNSLRVEDSAVYYCVRAYSRSSSDYKYGMDVWGQGTTVTVSS
VL: DIQMTQSPSTLSASVGDRVIITCRASQSISSWLAWYQQRPGKAPELLIYKASSLETGVPSRFSGSGSGTEFTLTISSLQPDDFATYFCQQYSSYWTFGQGTKVEIK
B5: CL-444588 (antibody, V domains shown)
VH: QVQLVESGGGVVQPGRSLRLSCAASGFTFSGYGMHWVRQTPGKGLGWVALIWYDGSNKFYADSVRGRFTISRDNSKNTLYLQMNSLRAEDTAIYYCARSYPSGSRGDKYGMDVWGQGTTVTVSL
VL: B4 VL with I20T, S31T, Y36F, R39K, E45K, T56S, S63T, F87Y, S92N
B6: CL-438096 (antibody, V domains shown)
VH: QVVLVESGGGVVQPGRSLRLSCEASGFIFSSRGMHWVRQTPGKGLEWVAIIWYDGSNKFYADSVKGRFTISRDNSKNTLYLQMNSLRAEDTAVYYCARSYRTSLDKKYGMDVWGQGTTVTVSS
VL: B4 VL with I20T, R39K, E45K, T56S, Q79H, S92N
B7: CL-444469 (antibody, V domains shown)
VH: QVQLVESGGGVVQPGRSLRVSCEVSGLTFSNYGMHWVRQAPGKRLEWVAIIWYDGSNKYYADSVKGRFTISRDNSKNTLYLQMNSLRAEDTAVYYCARSYGSGSRGDYYGMDVWGQGTTVTVSS
VL: B4 VL with I20T, Y36F, R39K, E45K, T56S, F87Y, S92Y
B8: CL-444882 (antibody, V domains shown)
VH: QVHLVESGGGVVQPGRSLRLSCATSGFSFSSYGMHWVRQAPGKGLEWVAIIWYDGSNKFYADSVKGRFTISRDNSENTLYLQMNSLRAEDTAVYYCAKVGLSYSGRTGAFDIWGQGTMVTVSS
VL: B4 VL with I20T, S31I, R39K, E45K, S52A, T56S, F62I, F87Y, S92N
B9: CL-444653 (antibody, V domains shown)
VH: QVQLVESGGGVVQPGRSLRLSCTASGFTFSTYGMHWVRQAPGKGLEWVAIIWYDGGNKFYADSVKGRFTISRDNSKDTLYLQMNSLRAEDTAVYYCAKAWYKVDDKYSMDVWGQGTTVTVSS
VL: B4 VL with I20T, R39K, E45K, T56S, S77G, F87Y, S92I, S93N
B10: CL-444691 (antibody, V domains shown)
VH: QVQLVESGGGVVQPGRSLRLSCAASGFTFSNYGMHWVRQAPGKGLEWVAVIWYDGSNKFYADSVKGRFTISRDNSKNTLYLQMNSLRAEDTAVYYCARDGGYNKNSGSYGWFDPWGQGTLVTVSS
VL: DIQMTQSPSTLSASVGDRVTITCRASQSVSTWLAWYQQKPGKAPKLLIYKASSLESGVPSRFSGSGSGTEFTLTISSLQPDDFATYYCQQYNSYFTFGQGTRLEIK
B11: CL-441734 (antibody, V domains shown)
VH: QVQLVESGGGVVQPGRSLRLSCAASGFTFSSHGMHWVRQAPVKGLEWVAVIWYDGSNKYYADSVKGRFTISRDNSKNTLYLQMNSLRAEDTAVYYCARVEYSRSSGDYYYYGLDVWGQGTTVTVSS
VL: EIVMTQSPATLSVSPGERATLSCRASQSVSSNLAWYQQKPGQAPRLLIYGASTRATGIPARFSGSGSGTEFTLTISSLQSEDFAVYYCQQYDNWWTFGQGTKVEIK
B12: CL-437716 (antibody, V domains shown)
VH: QVHLVESGGGVVQPGRSLRLSCAASGFIFSNSGMHWVRQVPGKGLEWVAIIWYDGSNKYYADSVKGRFTISRDNSKNTLYLQMNSLRAEDTAVYYCVRAYSSSSSYYYGMDVWGQGTTVTVSS
VL: not shown
B13: CL-437862 (antibody, V domains shown)
VH: QVQLVESGGGVVQPGRSLRLSCAASGFTFSNSGMHWVRQVPGKGLEWVAIIWYDGGNKYYADSVKGRFTISRDNSKNTLYLQMNSLRAEDTAVYYCARAYYDILTSYDKDCCYGMDVWGQGTTVTVSS
VL: not shown
B14: CL-437934 (antibody, V domains shown)
VH: B13 VH with E6A, G10A, V40A, K43Q, A97V, D102E, S106T, D108N
VL: not shown
B15: CL-444639 (antibody, V domains shown)
VH: QVQLVESGGGVVQPARSLRLSCAASGFTFSSYGMHWVRQAPGKGLEWVAVIWYDGSNKYYADSVKGRFTISRDNSKNTLYLQMNSLRAEDTAVYYCAKVGDFYGSGSYPHYYGMDVWGQGTTVTVSS
VL: not shown
B16: CL-437762 (antibody, V domains shown)
VH: QVQLVESGGGVVQPGRSLRLSCAASGFTFSNYGMYWVRQAPGKGLEWVAVIWYDGSNKYYADSVKGRFTISRDNSKNTLYLQMNSLRAEDTAFYYCARPQYSGSGSYFDYWGQGTLVTVSS
VL: not shown
B17: CL-444387 (antibody, V domains shown)
VH: B8 VH with A23V, T24A, N57Y, K58T, F59Y, E76K, A88V, S104N
VL: not shown
B18: CL-444739 (antibody, V domains shown)
VH: B8 VH with A23V, T24A, K58R, F59Y, K65Q, E76K, S104N, I112V
VL: not shown
B19: CL-440582 (antibody, V domains shown)
VH: QVQLVESGGGVVQPGRSLRLSCAASGFTLNNYGIHWVRQAPGKGLEWLSLIWYDGSNKFYADSVKGRFTVSRDNSQNTVSLHMSSLSVDDTAVYYCARPGIGVPGDKYTMDVWGQGTTVTVSS
VL: DIQMTQSPSTLSASVGDRVTITCRASQTISAWLAWYQQKLGKAPKILIYKASILESGVPSRFSGSGSGTEFTLTINSLQPDDFATYYCQQYNYDWTFGQGTKVEIN
B20: CL-442127 (antibody, V domains shown)
VH: QAQLVESGGGVVQPGKSLRLSCAASRFTFRNYGMHWVRQGPVKGLEWVALIWHDGSNKFYSDSVRDRFTISRDNSKNKLFLQMNSLTADDTALYYCVRSNYDGSGTYGWFGPWGQGTLVTVSS
VL: EIVLTQSPGTLSLSPGERATLSCRASQSVISNYLAWYQQKPGQAPRLLIYGASTRDIGIPDRFSGSGSGTDFTLTISRLEPEDFAVYFCHQYGSSFTFGPGTKVDFK
B21: CL-444424 (antibody, V domains shown)
VH: QVQLVESGGGVVQPGRSLRLSCTASGFTFSNYGMHWIRQAPGKGLEWVAIIWFDGSSQYYADSVKGRFTISRDNSKNTLYLQMNSLRAEDTAVYYCVRALYDSGSLFDFWGLGTLVTVSS
VL: DIQMTQSPSTLSASVGDRVTITCRASQNISSLLAWYQQKPGKAPKLLIYKASSLESGVPSRFSGNGSGTEFTLTVSSLQPDDFATYSCLQYNNYWTFGQGTKVEIK
B22: CL-437907 (antibody, V domains shown)
VH: QVQLVESGGGVVQPGRSLRLSCVASGFTFSHSGMHWVRQTPGKGLEWVAIIWHDGSIKYYVESVKGRFTISRDNSKNTLYLEMRSLRAEDTAVYFCVRSYSESLYDKYGMDVWGQGTTVTVSS
VL: DIQMTQSPSTLSASVGDRVTISCRASQSISSWLAWFQQKPGKAPKLLIYAASSLQSGVPSRFSGSGSGTDFTLTISSLQPDDFATYYCQQFNSYWTFGQGTKVEVK
B23: CL-438145 (antibody, V domains shown)
VH: QVQLVESGGGVVQPGRSLRLSCAASGFTFSDYGMHWVRQAPGKGLEWVAIIWYDGSNKYYAASVKDRFIISRDNFKNTLYLQMNSLRAEDTAVYYCARVNFDDSGSWDYWGQGTLATVSS
VL: DIQMTQSPSTLSASVGDRVTITCRASQNINTRLAWYQQKVGTAPKLLIYTASSLESGVPSRFSGSGSGTEFTLTISSLQPDDFATYYCQQYYRYWTFGQGTKVEIK
B24: CL-440324 (antibody, V domains shown)
VH: QVQLVESGGGVVQPGRSLRLSCAASGFTFRNHGLHWVRQAPGKGLEWVAIIWFDGSNKFYADSVKGRFTISRDNSKNTLYLQMNSLRAEDTAIYYCARVSSHDNGDYGDFDYWGQGTLVTVSS
VL: B10 VL with S28N, V29I, T31N, S77G, N92K, S93T, F95W, R102Q, L103V
B25: CL-440422 (antibody, V domains shown)
VH: QVQLVESGGGVVQPGRSLRLSCAASGFTFSNFGMHWVRQTPDRGLEWVAIIWFDGSNTFYTDSVKGRFTISRDNYMNTLYLQMNSLRAEDTAVYYCARSFYSDSAGSLFDYWGQGTLVTVSS
VL: DIQMTQSPSTLSASVGDRVTITCRASQNINNWVAWYQQKPGKAPKLLIYKASDLETGVPSRFSGSGSGTEFTLTISGLQPDDFATFYCLQNNHYWTFGQGTKVEIK
B26: CL-437492 (antibody, V domains shown)
VH: QEQLVESGGGVVQPGNSLRLSCVASGFTFSNHGMHWVRQAPGKGLEWVAIIWYDGSQKFYSDSVKGRFTISRDNSKNTLYLQMNSLRAEDTAIYYCARVDWSGNDWGWFDPWGQGTLVTVSS
VL: EIVLTQSPDTLSLSPGERATLSCRASQTLSSRHLAWYQQKPGQAPRLLIYGASSRATGIPDRFSGSGSGTDFTLTINRLEPEDFAVFYCQQYGRLWTFGQGTKVEIK

Target: recombinant full-length PfCSP (Plasmodium falciparum circumsporozoite protein, strain NF54) (Plasmodium falciparum NF54, UniProt P19597)
Sequence (P19597 20-375): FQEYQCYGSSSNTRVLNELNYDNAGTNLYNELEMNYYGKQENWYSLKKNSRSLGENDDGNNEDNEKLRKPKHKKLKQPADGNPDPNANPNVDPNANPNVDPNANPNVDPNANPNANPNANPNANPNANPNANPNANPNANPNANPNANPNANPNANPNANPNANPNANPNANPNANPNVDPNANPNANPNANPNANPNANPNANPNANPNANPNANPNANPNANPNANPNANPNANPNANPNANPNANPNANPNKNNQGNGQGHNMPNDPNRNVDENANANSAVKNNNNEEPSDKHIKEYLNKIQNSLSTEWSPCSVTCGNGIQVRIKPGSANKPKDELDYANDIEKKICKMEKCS

| Binder | binding result |
| --- | --- |
| B1 | binds |
| B2 | binds |
| B3 | binds |
| B4 | binds |
| B5 | binds |
| B6 | binds |
| B7 | binds |
| B8 | binds |
| B9 | binds |
| B10 | binds |
| B11 | binds |
| B12 | binds |
| B13 | binds |
| B14 | binds |
| B15 | binds |
| B16 | binds |
| B17 | binds |
| B18 | binds |
| B19 | binds |
| B20 | binds |
| B21 | binds |
| B22 | binds |
| B23 | binds |
| B24 | binds |
| B25 | binds |
| B26 | binds |
